Data as given in publication doi:10.1101/302299.

Tests used:
[1] = biological target: T1, AtERF96 WT (Arabidopsis thaliana, UniProt Q9LSX0 1-131); assay: X-ray crystallography
[2] = biological target: T1, AtERF96 WT; assay: EMSA

T1 sequence (Q9LSX0 whole entry): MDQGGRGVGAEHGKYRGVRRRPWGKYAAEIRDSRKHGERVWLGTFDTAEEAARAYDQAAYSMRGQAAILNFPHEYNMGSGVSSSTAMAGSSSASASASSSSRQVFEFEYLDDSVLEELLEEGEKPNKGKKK

B1: GCC11 (crystal) (dsDNA)
DNA 1: TAGCCGCCAGC
DNA 2: GCTGGCGGCTA
binding result [1]: binds

B2: GCC11 probe (dsDNA)
DNA 1: TAGCCGCCAGC
DNA 2: GCTGGCGGCTA
binding result [2]: binds
